Data on four substances can be found in US20260001934A1.

Assay [1] concerns the target α210.GS.BBz CAAR. Kind of assay: flow cytometry, mAb 210 plus secondary IgG-APC on lentivirally transduced primary human T cells, day 5; the same gate on NTD cells reads 0.20. (In general: Flow cytometry measures light scatter and fluorescence of single cells or particles in a stream.)
Assay [2] addresses α211.GS.BBz CAAR. The assay is described as above.
Assay [3] has as its target α39P AChR.CD8H.BBz CAAR. Kind of assay: flow cytometry, mAb 210 staining of lentivirally transduced Jurkat cells, day 3; the same gate on NTD cells reads 0.43.
The target of assay [4] is α65P AChR.CD8H.BBz CAAR. The assay is described as above.
Assay [5] addresses α210.GS.BBz CAAR. Kind of assay: flow cytometry, mAb 210 plus anti-rat IgG-APC on transiently transfected 293T cells, day 2; non-transfected 293T reads 0%.
Assay [6] has as its target α211.GS.BBz CAAR. The assay is described as above.
Assay [7] concerns the target α208.GS.BBz. Kind of assay: flow cytometry, mAb 210 plus anti-rat IgG-APC on transiently transfected 293T cells, day 2; non-transfected 293T reads 0%; the filing says this CAAR is not expressed on the cell surface, so the low value shows absent target and not lack of affinity.
Assay [8] has as its target α39P AChR.CD8H.BBz CAAR. Kind of assay: flow cytometry, mAb 210 staining of lentivirally transduced primary human CD3+ T cells, day 5; the same gate on NTD cells reads 0.32.
The target of assay [9] is α65P AChR.CD8H.BBz CAAR. The assay is described as above.
In assay [10] the target is α208.GS.BBz. Kind of assay: flow cytometry, mAb 210 plus secondary IgG-APC on lentivirally transduced primary human T cells, day 5; the same gate on NTD cells reads 0.20; the filing says this CAAR is not surface-expressed, so the low value shows absent target and not lack of affinity.
Assay [11] addresses α210.GS.BBz CAAR.
In assay [12] the target is α211.GS.BBz CAAR.
For assay [13], the target named is α39P AChR.CD8H.BBz CAAR.
Assay [14] has as its target α65P AChR.CD8H.BBz CAAR.
The target in assay [15] is α39P AChR.CD8H.BBz CAAR. The source holds these as a separate data set.
The target of assay [16] is α208.GS.BBz.
In assay [17] the target is α210.GS.BBz CAAR. This is another data set of the same source.
The target in assay [18] is α211.GS.BBz CAAR. The source holds these as a separate data set.
Assay [19] deals with α65P AChR.CD8H.BBz CAAR. The source holds these as a separate data set.

Sequence of α39P AChR.CD8H.BBz CAAR (chain, as listed by the source): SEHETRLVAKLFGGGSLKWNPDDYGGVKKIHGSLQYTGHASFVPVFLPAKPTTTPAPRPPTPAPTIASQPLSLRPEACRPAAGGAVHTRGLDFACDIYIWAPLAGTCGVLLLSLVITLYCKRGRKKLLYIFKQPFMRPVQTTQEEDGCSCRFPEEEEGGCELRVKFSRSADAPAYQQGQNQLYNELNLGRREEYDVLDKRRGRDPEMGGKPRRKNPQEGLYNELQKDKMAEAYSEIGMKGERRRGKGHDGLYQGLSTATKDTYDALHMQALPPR

Turning to “anti-AChR alpha subunit monoclonal antibody 210”, the % of cells in the mAb 210-positive gate (% (unit not given; gate frequency)) in assay [1] came to 41.3; in assay [2], 63.6; in [3] it was 68.5; in assay [4], 68.8; in assay [8] it was 53.4; in assay [9], 13.1. Besides, in assay [10], the % of cells in the mAb 210-positive gate (% (unit not given; gate frequency)) worked out at 1.14. In addition, the % AChR CAAR surface-positive 293T cells in [5] was determined as 26.3%; in assay [6], 17.1%; in [7] it was 3.91%.
Regarding “mAb 195 anti-AChR B cell receptor expressed on Nalm6 cells (antibody)”, the % GFP+ AChR CAAR Jurkat NFAT-GFP cells (CD3+ gate) after 12 h co-culture in assay [11] came to 91.7%. Besides, in assay [12], the % GFP+ AChR CAAR Jurkat NFAT-GFP cells (CD3+ gate) after 12 h co-culture worked out at 94.6%. Moreover, in [13], the % GFP+ among CD3+-gated α39P CAAR Jurkat NFAT-GFP cells after 12 h co-culture, lower histogram (Nalm6 control: 4.1) (% (unit not given; gate frequency)) was 68.6 and the % of all co-cultured cells in the CD3+ GFP+ quadrant, upper dot plot, upper right (Nalm6 control: 1.52) (% (unit not given; quadrant frequency)) was determined as 17.8. In assay [14], this substance came in with a % GFP+ among CD3+-gated α65P CAAR Jurkat NFAT-GFP cells after 12 h co-culture, lower histogram (% (unit not given; gate frequency)) of 70.5 and a % of all co-cultured cells in the CD3+ GFP+ quadrant, upper dot plot, upper right (% (unit not given; quadrant frequency)) of 6.95.
In [15], “mAb 35 surface anti-AChR B cell receptor on TIB-175 hybridoma cells (antibody)” gave a % GFP+ CAAR Jurkat NFAT-GFP cells after 12 h co-culture with TIB-175 (NTD Jurkat in the same figure: 4.1) (% (unit not given; gate frequency)) of 53.7. The substance also displayed a % GFP+ Jurkat reporter cells (CD3+ gate) after 12 h co-culture with TIB-175; the construct is a negative control that is not on the cell surface in [16] of 2.88%. Also, the % GFP+ AChR CAAR Jurkat reporter cells (CD3+ gate) after 12 h co-culture with TIB-175 in assay [17] turned out to be 53%; in assay [18], 55.7%. This substance also displayed a % GFP+ CAAR Jurkat NFAT-GFP cells after 12 h co-culture with TIB-175 (NTD Jurkat in the same figure: 0.81) (% (unit not given; gate frequency)) in [19] of 69.
The substance “mAb 192 anti-AChR B cell receptor expressed on Nalm6 cells (antibody)” returned a % GFP+ AChR CAAR Jurkat NFAT-GFP cells (CD3+ gate) after 12 h co-culture in assay [11] of 89.5%. Also, in assay [12], the % GFP+ AChR CAAR Jurkat NFAT-GFP cells (CD3+ gate) after 12 h co-culture is 91.4%. In assay [13], this substance gave a % GFP+ among CD3+-gated α39P CAAR Jurkat NFAT-GFP cells after 12 h co-culture, lower histogram (Nalm6 control: 4.1) (% (unit not given; gate frequency)) of 6.23 and a % of all co-cultured cells in the CD3+ GFP+ quadrant, upper dot plot, upper right (Nalm6 control: 1.52) (% (unit not given; quadrant frequency)) of 5.44. In assay [14], this substance returned a % GFP+ among CD3+-gated α65P CAAR Jurkat NFAT-GFP cells after 12 h co-culture, lower histogram (% (unit not given; gate frequency)) of 41.4 and a % of all co-cultured cells in the CD3+ GFP+ quadrant, upper dot plot, upper right (% (unit not given; quadrant frequency)) of 5.96.
